How the values were obtained:
[1] = test system: TNF-α; assay: Anti-inflammatory repair experiment, LPS-stimulated RAW264.7 cells, ELISA TNF-α; assay type: cell-based, mouse
From the text: (§1) Mouse mononuclear macrophages (RAW264.7 cells).
(§2) Peptide (2), tested at a concentration of 100 ppm.
(§3) • a) Take RAW264.7 cells in good exponential growth phase, add 0.25% trypsin digestion solution, digest to make adherent cells fall off, count 1-4×10^6 cells/mL, and make cell suspension; • b) Appropriately dilute 100,000 cells/well of cell suspension and inoculate it on a 6-well plate, and establish an LPS-stimulated inflammation model when the cells reached about 80% confluent. Set blank control group (control), LPS group, dexamethasone group (DXM), polypeptide group. Add 1000 μL culture medium to the blank control group; add 200 ng/mL LPS to the LPS group, add culture medium to 1000 μL; add 200 ng/mL LPS and 50 ng/mL dexamethasone to the dexamethasone group, add culture medium to 1000 μL; add 200 ng/mL LPS and peptide (2) to the polypeptide group, add culture medium to 1000 μL (final test concentration of peptide is 100 ppm). […] The OD value of each well was sequentially measured at 450 nm with a microplate reader within 15 min after the reaction was terminated. […]

[2] = test system: IL-6; assay: Anti-inflammatory repair experiment, LPS-stimulated RAW264.7 cells, ELISA IL-6; assay type: cell-based, mouse; details: 100 ppm, 200 ng/mL LPS, 48 h, vs LPS group
From the text: as §1, §2, §3

[3] = test system: HaCaT cells; assay: Scratch test (cell migration); assay type: cell-based, human; details: 24 hours after scratch; peptides 100 ppm, EGF 50 U/mL; vs normal control group
Experimental: Human keratinocytes (HaCaT) were purchased from the Kunming Cell Bank of the Type Culture Collection Committee of the Chinese Academy of Sciences.
The cryopreserved HaCaT cells were cultured, subcultured to about 5 passages according to the ratio of 1:2, and the cells with better growth were selected as the experimental objects. Cells were seeded in a 12-well plate at a density of 200,000 cells/well, with 2 mL of cell suspension in each well. After the cells adhered to the wall, the medium was replaced with 0.5% to 1% fetal bovine serum to maintain the cells for 24 hours to synchronize them. change. Scratch with a sterilized pipette tip, wash off the dropped cells with PBS, add the sample to be tested, continue to incubate in a 37° C., 5% CO2 incubator, and place it under an optical microscope after 24 hours to analyze the wound healing area.
The cell scratch migration test can reflect the proliferation and repair ability of the cells.

[4] = Stability of powders at 25° C. and 40° C. (HPLC purity over time)
Experimental: (§9) In Example 29, the HPLC chromatographic separation conditions were as follows: • Chromatographic column: Octadecyl bonded silica gel as filler 4.6*250 mm, 5 m • Mobile phase A: Acetonitrile (containing 0.09% trifluoroacetic acid) • Mobile phase B: 0.1% trifluoroacetic acid • Diluent: water • Flow rate: 1.0 ml/min; • Column temperature: 35° C.; • Detection wavelength: 215 nm; • Injection volume: 10 μl; • Running time: 32 min • Gradient elution table:
(§10) The test solution: Take an appropriate amount of this product and add water to dissolve and dilute to make a solution containing 1 mg per 1 ml.

[5] = test system: NIH3T3 cells; assay: UVB light damage repair experiment (MTT), NIH3T3; assay type: cell-based, mouse; details: UVB irradiated, each dose of 12.5 ppm-100 ppm, 24 hours
Experimental: (§4) Human keratinocytes (HaCaT) were purchased from the Kunming Cell Bank of the Type Culture Collection Committee of the Chinese Academy of Sciences, and mouse skin fibroblasts (NIH3T3) were purchased from the Shanghai Cell Bank of the Type Culture Collection Committee of the Chinese Academy of Sciences.
(§5) Take cells in good exponential growth phase, add 0.25% trypsin digestion solution, digest to make adherent cells fall off, count 1×10^5-4×10^5 cells/mL, and make cell suspension.
(§6) Cells were seeded into 96-well plates at 10,000 cells/well, and the UVB photodamage model was established when the cells reached about 80% confluent. […]
(§7) After 24 hours, add 22 μL of 5 mg/mL MTT to each well, place in an incubator and incubate for 4 hours, discard the original solution, and add 150 μL/well of DMSO. After 5 minutes, use a microplate reader to read the reference OD values at 490 nm and 630 nm wavelengths.
(§8) By establishing a UVB light-damaged cell model, administering 24 hours after ultraviolet light irradiation, and using the MTT method to detect cell proliferation activity, the ability of the peptide of the present invention to repair light-damaged cells was evaluated.

[6] = test system: IL-8; assay: Anti-inflammatory repair experiment, LPS-stimulated RAW264.7 cells, ELISA IL-8; assay type: cell-based, mouse; details: 100 ppm, 200 ng/mL LPS, 48 h, vs LPS group
From the text: as §1, §2, §3

[7] = Stability of aqueous solutions (HPLC purity over time); assay type: physicochemical
Experimental: as §9, §10

[8] = test system: HaCaT cells; assay: UVB light damage repair experiment (MTT), HaCaT; assay type: cell-based, human; details: UVB irradiated, 12.5-100 ppm, 24 hours
Experimental: as §4, §5, §6, §7, §8

Substance: H-Ala-Pro-Phe-Arg-Met-Gly-Ile-Met-Thr-Thr-Asn-OH (H-APFRMGIMTTN-OH) [Peptide (2)]
- anti-inflammatory effect compared with dexamethasone ([1]; 100 ppm vs 50 ng/mL dexamethasone, TNF-α, IL-6 and IL-8): equivalent to the positive drug dexamethasone
- expression of TNF-α ([1]; 100 ppm, 200 ng/mL LPS, 48 h, vs LPS group): significantly down-regulated
- expression of IL-6 [2]: significantly down-regulated
- scratch spacing (proliferation and migration) [3]: shorter than that of the normal control group
- powder (purity) ([4]; 25° C., Day 20): 99.146%
- powder (purity) ([4]; 40° C., Day 20, listed as Peptide(2)): 98.583%
- powder (purity) ([4]; 40° C., Day 20, listed as peptide (2)): remained unchanged
- powder (purity) ([4]; powder, Day 0): 99.291%
- activity of photodamaged NIH3T3 cells (MTT) [5]: can significantly increase NIH3T3 cell activity
- expression of IL-8 [6]: significantly down-regulated
- aqueous solution (purity) ([7]; Day 8 at room temperature): 99.122%
- aqueous solution (purity) ([7]; Day 18 at room temperature): 98.045%
- aqueous solution (purity) ([7]; Day 18 at room temperature, listed as peptide (2)): did not change significantly
- aqueous solution (purity) ([7]; Solution, Day 0): 99.291%
- effect on improving activity of photodamaged HaCaT cells compared among peptides (1)-(5) [8]: better effect on improving cell activity

— patent US20240352069A1, “SYNTHETIC PEPTIDE, AND COSMETIC COMPOSITION OR PHARMACEUTICAL COMPOSITION AND APPLICATION THEREOF” (SHENZHEN WINKEY TECHNOLOGY CO., LTD., priority 2021, published 2024)
